Read-outs that look alike come from different tables or passages of the source.

Assay [1] has as its target T1, human MC-5R (Homo sapiens, UniProt P33032).
T1 construct: expressed in transfected cells
The format is binding. On the procedure:
(§1) The receptor plasmid was transfected into CHO dhfr- cells using lipofectamin (GIBCO). Transfected cells were selected by G418 for at least 2-3 weeks before binding and functional assays were performed. […] After incubation at room temperature for 3 hours, wells were washed 3 times by PBS, lysed in 0.5 ml of 0.05% SDS and counted by a gamma counter.
(§2) Single clones were used in all pharmacological studies as described above.
(§3) A cDNA encoding human MC-5R subcloned into the pIRES1neo expression vector (Clontech) and stably transfected into CHO cells was used as a reference for the pharmacological properties of the rhesus MC-5R. Single clones were used in all pharmacological studies as described above. The functional properties of rhMC-5R were determined by heterologous expression in CHO cells.

For assay [2], the system named is rhesus MC-5R. The format is cell-based, rhesus monkey (Macaca mulatta). Particulars: for EC50: read-out: EC50, nM rhMC-5R. The protocol:
(§4) To determine the functional activation of receptors, stably transfected CHO cells were washed once with PBS without Ca^++/Mg^++, dissociated by non-enzymatic dissociation medium (Specialty Media, Inc.) at 37° C. for 10 min. Dissociated cells were resuspended in EBSS buffer containing 25 mM Hepes, 5 mM MgCl2, 0.1% BSA and 50 mM IBMX and incubated with agonist at room temperature for 45 min. The agonist activation was terminated by boiling for 4 min.
as §3

For assay [3], the system named is rhesus MC-5R. The format is binding, rhesus monkey (Macaca mulatta). As to conditions: read-out: IC50, nM rhMC-5R. On the procedure:
as §1, §3

Assay [4] concerns the target T1, human MC-5R. The class given is cell-based. On the procedure:
as §4, §2, §3

In assay [5] the target is rhesus monkey (Macaca mulatta) melanocortin-5 receptor (rhesus monkey (Macaca mulatta)). Put plainly: cell-based or functional assay.
The target of assay [6] is T2, human melanocortin 5 receptor (human, UniProt P33032 1-325). Put plainly: cell-based or functional assay.
Assay [7] has as its target T2, human melanocortin 5 receptor. Put plainly: displacement of 0.1 nM 125I-NDP-α-MSH from CHO cells stably expressing hMC-5R.
Assay [8] addresses rhesus monkey (Macaca mulatta) melanocortin-5 receptor (rhesus monkey (Macaca mulatta)). In words: displacement of 0.1 nM 125I-NDP-α-MSH from CHO cells stably expressing rhMC-5R.
Assay [9] deals with T3, rhesus monkey (Macaca mulatta) melanocortin-5 receptor (rhesus monkey (Macaca mulatta), UniProt P33032 1-325 (human entry)).
T3 chain: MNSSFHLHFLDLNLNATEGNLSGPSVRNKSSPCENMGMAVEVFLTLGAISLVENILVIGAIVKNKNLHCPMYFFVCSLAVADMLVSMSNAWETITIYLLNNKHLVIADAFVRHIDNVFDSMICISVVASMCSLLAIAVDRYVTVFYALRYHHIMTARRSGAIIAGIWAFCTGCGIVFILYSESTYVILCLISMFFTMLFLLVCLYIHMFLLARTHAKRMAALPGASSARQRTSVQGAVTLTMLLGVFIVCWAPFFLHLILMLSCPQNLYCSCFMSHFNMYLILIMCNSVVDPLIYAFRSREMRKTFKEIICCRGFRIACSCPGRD
Put plainly: cell-based or functional assay.

Assay [10] addresses T3, rhesus monkey (Macaca mulatta) …. Put plainly: displacement of 0.1 nM 125I-NDP-α-MSH from CHO cells stably expressing rhMC-5R. The protocol:
The receptor plasmid was transfected into CHO dhfr-cells using lipofectamin (GIBCO). Transfected cells were selected by G418 for at least 2–3 weeks before binding and functional assays were performed. […] After incubation at room temperature for 3 hours, wells were washed 3 times by PBS, lysed in 0.5 ml of 0.05% SDS and counted by a gamma counter.

T1 sequence (P33032 whole entry): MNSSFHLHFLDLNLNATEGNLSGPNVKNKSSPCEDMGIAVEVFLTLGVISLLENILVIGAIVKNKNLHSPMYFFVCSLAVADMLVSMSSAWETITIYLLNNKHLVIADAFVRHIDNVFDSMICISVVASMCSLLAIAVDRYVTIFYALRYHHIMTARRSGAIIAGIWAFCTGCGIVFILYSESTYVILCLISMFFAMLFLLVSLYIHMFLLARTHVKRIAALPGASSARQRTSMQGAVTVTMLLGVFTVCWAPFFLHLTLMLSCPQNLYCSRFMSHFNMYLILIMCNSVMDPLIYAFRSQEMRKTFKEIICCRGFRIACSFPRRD

By EC50 is commonly meant the concentration giving half of the maximal effect. For the molecule α-MSH, in assay [1], the “Apparent binding affinity for the human MC-5R (in words)” value is given as “very low apparent binding affinity”. Moreover, in assay [2], the “Maximal response (%) rhMC-5R” value is listed as 100% and the 50% effective concentration (EC50) was determined as 0.2 ± 0.1 nM.

The term IC50 denotes the point on the concentration scale where inhibition reaches its midpoint. Consider MT-II [MTII], for which, in assay [3], the IC50 worked out at 5 ± 0.2 nM. In addition, in [2], the “Maximal response (%) rhMC-5R” value is listed as 100% and the EC50 came out at 0.02 ± 0.01 nM. In addition, in [4], the “Agonist character at human MC-5R (in words)” value is “partial agonists” and the “Maximal response (%) hMC-5R” value is listed as 85%.

Consider NDP-α-MSH, for which the IC50 in assay [3] stood at 0.2 ± 0.1 nM. Further, in [2], the “Maximal response (%) rhMC-5R” value stood at 100% and the EC50 amounted to 0.02 ± 0.01 nM.

NDP-α-MSH (peptide): the EC50, nM (cAMP synthesis in CHO cells) stood at 0.02 nM in [5] and 0.3 nM in assay [6]. Further, the Maximal response (%) in [5] and in assay [6] was 100% each time. Moreover, the concentration for half-maximal inhibition (IC50) in [7] was found to be 0.5 nM; in [8], 0.2 nM.

As to Shu-9119 (peptide), the EC50, nM (cAMP synthesis in CHO cells) was 0.007 nM in assay [5] and 0.03 nM in [6]. Further, the Maximal response (%) in [5] and in assay [6] was 100% throughout. In addition, the results for the half-maximal inhibitory concentration (IC50) in assay [7] and in assay [8] were 0.4 nM and 0.02 nM, respectively.

For the molecule γ2-MSH, the “Maximal response (%) rhMC-5R” value in assay [2] is recorded as 100%. Also, in assay [4], the “Agonist character at human MC-5R (in words)” value is on record as “partial agonists” and the “Maximal response (%) hMC-5R” value stood at 80%.

As for human ACTH(1-24) [ACTH1-24], the IC50 in assay [3] turned out to be 15 ± 1 nM. The “Maximal response (%) rhMC-5R” value in assay [2] (cAMP response, CHO cells) is 100%. In addition, the 50% effective concentration (EC50) in assay [2] (intracellular cAMP, CHO cells, agonist 45 min at room temperature) was found to be 0.2 ± 0.1 nM. Also, the “Maximal response (%) hMC-5R” value in assay [4] (cAMP response, CHO cells) came out at 100%.

Take MT-II (peptide): the EC50, nM (cAMP synthesis in CHO cells) stood at 0.02 nM in assay [5] and 0.8 nM in assay [6]. The Maximal response (%) in [5] was 100%; in assay [6], 85%. The molecule also showed an IC50 in [8] of 5 nM.

On to SYSMEHFRWGKPVGKKRRPVKVYP (peptide, UniProt P01189 138-161, looked up, range 138-161) [human ACTH(1-24)], for which, in assay [9], the “EC50, nM (cAMP synthesis in CHO cells)” value is 0.2 nM and the “Maximal response (%)” value is 100%. Besides, in assay [6], the “EC50, nM (cAMP synthesis in CHO cells)” value stood at 5 nM and the “Maximal response (%)” value came out at 100%. The molecule further displayed an IC50 in assay [10] of 15 nM.

The values above are taken from patent US6645738B1, “DNA molecules encoding the melanocortin 5 receptor protein from rhesus monkey” (Merck & Co., Inc., priority 1998, dated 2003).
